For the series, the system named is CHO-M1 cells. Kind of series: Entry of a fluorophore into cells in culture, fluorescence reader. Particulars: 2.5 μM or 5 μM in KREBS buffer, 1 hour, FIG. 13.

Description: CHO cells are cultivated at 37° C., under a controlled atmosphere containing 5% of CO2, in F-12 HAM medium (Invitrogen)+10% of fetal calf serum (FCS) previously inactivated for 20 min at 60° C.
On the day before the experiment, CHO-M1 cells are inoculated into a 96-well plate at a density of 10,000 cells per well.
On the day of the experiment, the culture medium is aspirated and replaced with the test compounds at a concentration of 2.5 μM or 5 μM in KREBS buffer (Sigma). After 1 hour of incubation, the wells are washed with a KREBS buffer+0.05% Tween 20. The cells are then lyzed in a PBS buffer+0.1% Triton X100. The fluorescence is measured on an Analyst AD reader (LJL, Molecular Devices) with the filters and the dichroic appropriate for the spectral specificities of the compound to be detected.

As for `N=C(N)NCCCC(NC(=O)CCCCCN)C(=O)NCCCCCC(=O)NC(CCCNC(=N)N)C(=O)NCCCCCC(=O)NC(CCCNC(=N)N)C(=O)NCCCCCC(=O)NC(CCCNC(=N)N)C(=O)NCCCCCC(=O)NC(CCCNC(=N)N)C(=O)NCCCCCC(=O)NC(CCCNC(=N)N)C(=O)NCCCCCC(=O)NC(CCCNC(=N)N)C(=O)NC(CSCC(=O)Nc1ccc2c(c1)C1(OC2=O)c2ccc(O)cc2Oc2cc(O)ccc21)C(N)=O` (stereo not shown) [R7fluorescein], the “entry into the cell (fluorescence intensity of lysed cells)” value is reported as “enter the cell”.
